Experimental findings from article PMC6614801, “Structural basis for the function of SuhB as a transcription factor in ribosomal RNA synthesis” (Nucleic Acids Research, 2019) are described below.

First the molecules themselves.
T1: SuhB^K108A (E. coli, UniProt P0ADG4 1-267, K108A)
T1 sequence (looked up): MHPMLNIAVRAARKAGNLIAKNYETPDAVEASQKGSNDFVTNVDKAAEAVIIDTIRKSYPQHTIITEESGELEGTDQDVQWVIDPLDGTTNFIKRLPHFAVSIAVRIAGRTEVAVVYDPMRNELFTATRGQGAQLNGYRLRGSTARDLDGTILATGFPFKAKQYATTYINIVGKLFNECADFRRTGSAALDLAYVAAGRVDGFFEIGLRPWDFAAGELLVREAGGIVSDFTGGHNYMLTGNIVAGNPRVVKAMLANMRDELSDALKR

B1: SuhB (inositol mono-phosphatase SuhB), wild type (natural protein, E. coli, UniProt P0ADG4 1-267, looked up)
chain: T1 sequence (looked up) with A108K
notes: Inositol mono-phosphatase SuhB of E. coli, PCR-amplified from E. coli (DH5α) genomic DNA, full length; Dimer by SEC-MALS and in both crystal structures; also called wt SuhB; SuhB^II; source: E. coli BL21(DE3)pLysS, purified (Ni-NTA, TEV digestion, SEC)
B2: SuhB^KL251/254AA (natural protein, E. coli, UniProt P0ADG4 1-267, looked up)
chain: T1 sequence (looked up) with A108K, K251A, L254A
notes: also called KL/AA
B3: N-terminally His6-tagged NusA^AR2 (domain or fragment, E. coli, UniProt P0AFF6 427-495, looked up)
chain: DNKPADDLLNLEGVDRDLAFKLAARGVCTLEDLAEQGIDDLADIEGLTDEKAGALIMAARNICWFGDEA
notes: C-terminal acidic repeat 2 (AR2) domain of E. coli NusA, residues 427–495; Same construct as m3, with the His6 tag kept for capture on the NTA chip in SPR; also called wt AR2; source: recombinant (pETM-11), purified via the same protocol as full-length NusA (19); not shown: His6, N-terminal, kept

Residue numbers refer to the chain shown, from its start.

Holding throughout (details): both partners purified
The target of experiment [1] is T2, NusA, full length (E. coli, UniProt P0AFF6 1-495).
T2 construct: Transcription factor NusA of E. coli, full length; also called NusA^FL; N-utilization substance A; source: recombinant, produced and purified as described previously (18,19)
Briefly: SEC; analytical SEC of mixtures of proteins only; Superdex 200 Increase 3.2/300; 20 μM largest component, 25 μM all smaller components; 20 mM HEPES–NaOH pH 7.5, 50 mM NaCl, 1 mM DTT; incubated at room temperature for 15 min; fractions on SDS-PAGE. In general terms: Size exclusion chromatography separates by hydrodynamic size, large species first.

The target of experiment [2] is T1, SuhB^K108A. The experiment can be described thus: SPR; Biacore, Sensor Chip NTA, 20°C; N-terminally His6-tagged NusA^AR2 immobilised; single cycle kinetics with SuhB variants at 25, 50, 100, 150 and 200 nM; 20 mM HEPES–NaOH pH 7.5, 50 mM NaCl, 1 mM DTT. In general terms: SPR reads the build-up and loss of mass on a sensor chip optically.
Experiment [3] addresses B1. The experiment is described as above.

B1: the binding result in experiment [1] was “binds”.
The same measure, in the same setting: under B2 stands “binds”.
Usually Kd stands for the constant that tells how readily two partners part at equilibrium. Read a low Kd as a tighter complex. In the case of B3, the Kd in experiment [2] was 435 nM; in experiment [3] it was 94 nM.
